In the DeepSol protein solubility set:

Assay: soluble on expression in E. coli; label from the status in PepcDB or PDB records

Row | Sequence | soluble on expression in E. coli
1 | SIRFVIDREECFSHKAEYEGDTLHVSFVVIKSDSQWHFNEDGVDLVIHGPTGEQIHDFREQISAKHDFVVQKKGVYRFCFTNKSPYHETIDFDVQLGHFAYYDQHAKDEHFTPLMEQISKLEEALYNIQFEQHWLEAQTDRQAIVNENMSKRAVHKALFESFALIGASFLQVYLLRRLFERKLGMSRV | soluble
2 | MFSAGHKIKGTVVLMPKNELEVNPDGSAVDNLNAFLGRSVSLQLISATKADAHGKGKVGKDTFLEGINTSLPTLGAGESAFNIHFEWDGSMGIPGAFYIKNYMQVEFFLKSLTLEAISNQGTIRFVCNSWVYNTKLYKSVRIFFANHTYVPSETPAPLVSYREEELKSLRGNGTGERKEYDRIYDYDVYNDLGNPDKSEKLARPVLGGSSTFPYPRRGRTGRGPTVTDPNTEKQGEVFYVPRDENLGHLKSKDALEIGTKSLSQIVQPAFESAFDLKSTPIEFHSFQDVHDLYEGGIKLPRDVISTIIPLPVIKELYRTDGQHILKFPQPHVVQVSQSAWMTDEEFAREMIAGVNPCVIRGLEEFPPKSNLDPAIYGDQSSKITADSLDLDGYTMDEALGSRRLFMLDYHDIFMPYVRQINQLNSAKTYATRTILFLREDGTLKPVAIELSLPHSAGDLSAAVSQVVLPAKEGVESTIWLLAKAYVIVNDSCYHQLMSHWLNTHAAMEPFVIATHRHLSVLHPIYKLLTPHYRNNMNINALARQSLINANGIIETTFLPSKYSVEMSSAVYKNWVFTDQALPADLIKRGVAIKDPSTPHGVRLLIEDYPYAADGLEIWAAIKTWVQEYVPLYYARDDDVKNDSELQHWWKEAVEKGHGDLKDKPWWPKLQTLEDLVEVCLIIIWIASALHAAVNFGEYPYGGLIMNRPTASRRLLPEKGTPEYEEMINNHEKAYLRTITSKLPTLISLSVIEILSTHASDEVYLGQRDNPHWTSDSKALQAFQKFGNKLKEIEEKLVRRNNDPSLQGNRLGPVQLPYTLLYPSSEEGLTFRGIPNSISI | soluble
3 | MQVINLKYPVALSQIPEGPIVLALGFFDGVHRGHQQVVATARQAAQAQHAKLAVMTFDQHPSVVFKHTDPQQVRYLTTIDQKTALMSELGVDILYVLHFDATVGAMPPQTFVDQLIVGLHAQTVVAGFDYTYGPAEIANMQRLNDYGHNRFEIIEVPKAELDAEKISSTRIRRALDAGDIDTANRLLGYQYETAGEVVHGEARGRTLGFPTANVAHGPNTRVPGIGIYATMVQIGTRWVMGMASVGRNVTFGDHRPITVEIYLLDFRGDLYGHNLTVRWGHRMRGEIKFAGADALVAQLKRDEQNTRDYYVAHPFVVAPRIQVAQQSNRLEAQ | not soluble
4 | MANNLMSGIIAQQPPIEAESDVHVVKSRLEWGEPAFTILDVRDRSIYNEGHIMGAMSMPIDELTERAAISLDTSRDIYIYGTNDGQTTQAAQILRSAGFKNVSQLKGGFGAWKAIGGATEGIIESRTPAAADDYNVVSRIQNHIETQQK | not soluble
5 | MGSDKIHHHHHHMKRARIIYNPTSGREIFKKHLAQVLQKFEQAGYETSTHATTCAGDATHAAKEAALREFDLIIAAGGDGTINEVVNGLAPLDNRPTLGVIPVGTTNDFARALGIPREDILKAADTVINGVARPIDIGQVNGQYFINIAGGGRLTELTYDVPSKLKTMLGQLAYYLKGMEMLPSLRPTEVEIEYDGKLFQGEIMLFLVTLTNSVGGFEKLAPDSSLNDGMFDLMILKKANLAEFIRVATMALRGEHINDQHIIYTKANRVKVNVSEKMQLNLDGEYGGMLPGEFVNLYRHIHVVMPKEKAEQLDD | not soluble
6 | MGSDKIHHHHHHMPPLNALRAFDAVARHGSFAGAAAELHVTHWAVGKQIRLLEDWFGLPLFDRRPRGVVLTDEGAVLLNDVSHAFEHLGTAVVRLRHNTLAHRISGVVRVNVPMSFAFCWLLPRLADFHSRYPDIDVRVSTTSRKLRYVADAFDIGVRSGPEQGAGVVSRPLMPDLRVPACNPALLRQHPIQSVADLRHHTLLHSATTRSAWSHWLREAGAADLRAARHVEFDHVNLQLGAAIEGLGVALASLPLIGRDLAEGRLVCPIASPVWRADDYTLVTNADRADDAAVSAFEQWMESMASQEAG | not soluble
7 | MGSDKIHHHHHHMLLHIPNVLNAEQLRIVRERLDTAGDAWVDGRATAGYQGAPVKRNQQIAEHTPIARELGDVILASIERNPLFISSVLPNQVYPPLFNRYEGGMQFGSHVDGAVRVLPNGVKLRTDVSVTLFISDPADYDGGELVIEDTYGVQQVKLPAGDMIVYPATSLHQVTPVTRGVRVASFFWVQSLVRSDTQRAMLFDMDTAIQRLNATNADDAARRSLVGIYHNLLRTWSEP | not soluble
8 | MAHHHHHHMFYTGINEPRPTAMNFSFDGLHFVSAHTDDAVRFIDVGNMTNTDVIICDAFGVHNVRYTHSSSVVCVAPRFHLDGHLHLLNTETSQFFGEMAYLNDAESEMLPVANTPVYSTLAQCPATDVIGAVVVAKGRLALFHPLISGCIAATPERSIVGSRACVQFSRDGHRIAIGDDHRIVLLDRRSFFGAPLAVLENKHVFTTSTSLTRCKGLEFSADANRLLLTSSSGEVVVYDWLRGETVANYFHGDARRHFVGSADAIGAQHVFPYQSASPILQLTSSMTGGRHLLVYAGCPSNSAASTRQGRLLYELQSKDSDVPVAIAVNPRLQLAATAARSITWWAFHNSVVEAYATLTEAGMTAAD | not soluble
9 | MGSDKIHHHHHHMAATNYSQTIKNDTKDFITTAILQLLGIQKTFEKPKNLAQLTVSNVCKRAGVSRMAFYRNFESIDQVIYQYYQPQISQSFEIIRQNVSASSKIENQLKFFEEFKDDLFLSESQGYEPIIRQIYIEEIEKFYEKTNDEYFITFVANGVYALWRKWLMNGQDKSIEEIHELIRKIVTI | not soluble
10 | MGSDKIHHHHHHMKIAVVGGTFWDIFIFGENPHSSTIRESPGGSGLNVAYGLFLLGHTVDFYSNIGDDWRGKQIVELLEKASFDTSHMSTIQGGKTGIFIAHNDKPLAVDPGVNRKEMKLPSLSEYDLVFVTGEIPEKTIRKICENTKNVILDVGPGARFDTSDLNALVIGNERECSFRKCDVVKMGSKGARWGEVYVPGNGISYPHSIGLGDLFDIVFVHHLPLGKSKKEILEEAVKCSQILGQKENVTPFERISFLEPLSTKDDTLECPDESKDASHHGG | not soluble
11 | MKKLAFAITAASGAAAVLSHHDAEASTQHKVQSGESLWTIAQQYNTSVESIKQNNNLSNNMVFPGQVINVGGSASQNTSSNTSSSSASSHTVVAGESLNIIANKYGVSVDALMQANHLNGYLIMPNQILTIPNGGSGSGSGGTATQTSGNYTSPSFNHQNLYTEGQCTWYVFDKRSQAGKPISTYWSDAKYWASNAANDGYQVDNTPSVGAIMQSTPGPYGHVAYVERINGDGSILISEMNYANGPYNMNYRTIPASEVSSYAFIHLEHHHHHH | not soluble
12 | MAKVKRRDLLKAGAALAAAGTLGKGFAQEFYASPPTLLPRSRAPRVVVVGGGWGGTTVARKVKQQNPGVEVVLVEQKPIFMSCPMSNLFLAGVKPLEWLVFDYTNVVKDGVIFVQEKVLEINRDRRLVRTTGGYLAYDFLVLAPGIDYMYEAIPGYEEAKHFLPVGFKPFEHIALRRMLDRFDETGGELVMYIPPPPYRCPPGPYERAAMLAWRLKTKGVKGKVIVLDANPQPLAKAPGFLAAYNELYKDYLEYQPNMRITGLDYEKKVVRTELGDYPFTLANVIPPMKAAEIVRQAGLGERWANVRIPYFLSEADDRVYLVGDITGNTPYPKSGMIAYVSGTIVARHLTERLKGKPLAEIPPELPTNICYSFVDSEEAIWVSANYSWDEAEKRIKAQSQVDNQRSKANGEAAIGWALGLWNDMFGPA | soluble
13 | SGELLGTLSISHDVTEWHKIQQNLRDEMERRKDTEVALAQRDTILQTILDASPDSIGIFNENMVYQACNKPFVNALGISEVSDLIGKRLQDVIPVEMYTRLETSDLHALRQAEPVRYIDKVVSSDGHITWFDVVKSPFKDKA | not soluble
14 | MSLTIYGVYRSRATRTLWLAAELGIEFKHVPVIQARRLADPLATDAPLNTLSPAFLAVNPMGTIPCIEDDGMVLYESMAINLYLARKYGGPLAPVDLKEDAAMLQWSFFAATEIETNSLKISSAIAEGLAESDAGKAVIDVAARLLKRPLRVLEQHLATHDYLVGDRFTVADLNVAEIVRYAQGHQPLFDAHPALKAWLARCQARTAFKSMWDSRTAEGHHHHHH | soluble
